Earlier results in publication PMC5593754.

Molecular target: Glu97 (UniProt position 97, WARMAEWLCTC)
Test: UV-vis
Conditions: unphotolyzed (dark) state, protonated Schiff base

For “Anion channelrhodopsin 1 (GtACR1) S97E mutant (Guillardia theta; S97E)”, the pKa is given as “∼8”.
